For 15 molecules, Kd results are on record in patent US20220041738A1 (SAITAMA MEDICAL UNIVERSITY, published 2022).

To fix the notation:
T1: Recombinant Human ALK2 Fc Chimera (Sino Biological Inc.) (human, UniProt Q04771 21-123)
T1 construct: Bought product; not shown: Fc of the bought chimera
T1 sequence: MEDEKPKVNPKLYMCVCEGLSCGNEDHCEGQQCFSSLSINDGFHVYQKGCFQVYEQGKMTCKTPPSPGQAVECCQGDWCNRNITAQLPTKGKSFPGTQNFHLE

T2: human ALK2 extracellular domain with C-terminal His tag (E. coli) (human, UniProt Q04771 21-123)
T2 construct: Expressed in E. coli SHuffle T7, purified to a single band of 12 kDa; also called ALK2-ECD; human ALK2-ECD; not shown: C-terminal His tag from pET-28b(+)
T2 sequence: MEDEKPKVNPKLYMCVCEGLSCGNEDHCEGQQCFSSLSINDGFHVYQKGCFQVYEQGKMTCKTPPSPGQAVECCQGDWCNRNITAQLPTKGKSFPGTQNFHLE

B1: humanized hA2-15A-H4/L6 (antibody, human IgG1)
heavy: not shown
light: DIVLTQSPDSLAVSLGERATINCRANQGVSLSRYNLMHWYQQKPGQKPKLLIYRSSNLAQGIPARFSGSGSGTDFTLTISSVQADDIAVYYCQQSRESPFTFGQGTKLELKRAVAAPSVFIFPPSDEQLKSGTASVVCLLNNFYPREAKVQWKVDNALQSGNSQESVTEQDSKDSTYSLSSTLTLSKADYEKHKVYACEVTHQGLSSPVTKSFNRGEC
notes: Human IgG1, kappa; also called humanized A2-15A antibody (IgG1)
B2: humanized hA2-27D-H2/L2 (antibody, human IgG1)
heavy: not shown
light: EIVLTQSPGTLSLSPGERATLSCLASSSVSYMTWYQQKPGQSPRLWIYGTSNLASGVPDRFSGSGSGTDFTLTISRLEPEDFAVYYCLHLTSYPPYTFGQGTKVEIKRAVAAPSVFIFPPSDEQLKSGTASVVCLLNNFYPREAKVQWKVDNALQSGNSQESVTEQDSKDSTYSLSSTLTLSKADYEKHKVYACEVTHQGLSSPVTKSFNRGEC
notes: Human IgG1, kappa; also called humanized A2-27D antibody (IgG1)
B3: humanized hA2-27D-H3/L4 (antibody, human IgG1)
heavy: not shown
light: EIVLTQSPGTMSASPGERVTLSCLASSSVSYMTWYQQKPGASPRLWIYGTSNLASGVPDRFSGSGSGTDYTLTISRMEPEDFATYYCLHLTSYPPYTFGAGTKLELKRAVAAPSVFIFPPSDEQLKSGTASVVCLLNNFYPREAKVQWKVDNALQSGNSQESVTEQDSKDSTYSLSSTLTLSKADYEKHKVYACEVTHQGLSSPVTKSFNRGEC
notes: as for B2
B4: humanized hA2-25C-H3/L2 (antibody, human IgG1, kappa, V domains shown)
VH: EVQLVESGGGLVQPGGSLRLSCAASGFTFSYYAMSWVRQAPGKGLEWVASISRGGDNTYYRDSVKGRFTTSRDNSKNTLYLQMNSLRAEDTAVYYCARLNYNNYFDYWGQGTLVTVSS
VL: DIQMTQSPSSLSASVGDRVTITCQASQDIGNWLSWYQQKPGKAPKLLIYGATSLADGVPSRFSGSRSGTDYTLTISSLQPEDFATYYCLQAYSAPFTFGQGTKVEIKR
notes: Human IgG1, kappa; used as culture supernatant of FreeStyle 293F cells
B5: humanized hA2-25C-H4/L3 (antibody, human IgG1, kappa, V domains shown)
VH: EVQLVESGGGLVQPGGSLRLSCAASGFTFSYYAMSWVRQAPGKGLEWVASISRGGDNTYYRDSVKGRFTTSRDNSKNTLYLQMNSLRAEDTATYYCARLNYNNYFDYWGQGVLVTVSS
VL: DIQMTQSPSSLSASVGDRVTITCQASQDIGNWLSWYQQKPGKSPKLLIYGATSLADGVPSRFSGSRSGTQYTLTISSLQPEDFATYYCLQAYSAPFTFGSGTKVEIKR
notes: as for B4
B6: humanized hA2-25C-H4/L1 (antibody, human IgG1, kappa, V domains shown)
VH: EVQLVESGGGLVQPGGSLRLSCAASGFTFSYYAMSWVRQAPGKGLEWVASISRGGDNTYYRDSVKGRFTTSRDNSKNTLYLQMNSLRAEDTATYYCARLNYNNYFDYWGQGVLVTVSS
VL: DIQMTQSPSSLSASVGDRVTITCQASQDIGNWLSWYQQKPGKAPKLLIYGATSLADGVPSRFSGSGSGTDFTLTISSLQPEDFATYYCLQAYSAPFTFGQGTKVEIKR
notes: as for B4
B7: humanized hA2-25C-H3/L3 (antibody, human IgG1, kappa, V domains shown)
VH: EVQLVESGGGLVQPGGSLRLSCAASGFTFSYYAMSWVRQAPGKGLEWVASISRGGDNTYYRDSVKGRFTTSRDNSKNTLYLQMNSLRAEDTAVYYCARLNYNNYFDYWGQGTLVTVSS
VL: DIQMTQSPSSLSASVGDRVTITCQASQDIGNWLSWYQQKPGKSPKLLIYGATSLADGVPSRFSGSRSGTQYTLTISSLQPEDFATYYCLQAYSAPFTFGSGTKVEIKR
notes: as for B4
B8: humanized hA2-25C-H3/L1 (antibody, human IgG1, kappa, V domains shown)
VH: EVQLVESGGGLVQPGGSLRLSCAASGFTFSYYAMSWVRQAPGKGLEWVASISRGGDNTYYRDSVKGRFTTSRDNSKNTLYLQMNSLRAEDTAVYYCARLNYNNYFDYWGQGTLVTVSS
VL: DIQMTQSPSSLSASVGDRVTITCQASQDIGNWLSWYQQKPGKAPKLLIYGATSLADGVPSRFSGSGSGTDFTLTISSLQPEDFATYYCLQAYSAPFTFGQGTKVEIKR
notes: as for B4
B9: humanized hA2-25C-H4/L2 (antibody, human IgG1, kappa, V domains shown)
VH: EVQLVESGGGLVQPGGSLRLSCAASGFTFSYYAMSWVRQAPGKGLEWVASISRGGDNTYYRDSVKGRFTTSRDNSKNTLYLQMNSLRAEDTATYYCARLNYNNYFDYWGQGVLVTVSS
VL: DIQMTQSPSSLSASVGDRVTITCQASQDIGNWLSWYQQKPGKAPKLLIYGATSLADGVPSRFSGSRSGTDYTLTISSLQPEDFATYYCLQAYSAPFTFGQGTKVEIKR
notes: as for B4
B10: humanized hA2-11E-H3/L3 (antibody, human IgG1, kappa, V domains shown)
VH: EVQLVESGGGLVQPGGSLRLSCAASGFTFSNYYMYWIRQAPGKGLEWVSSINTDGGSTYYADSVKGRFTISRDNSKNTVYLQMNSLRAEDTAVYYCAKSTPNIPLAYWGQGTLVTVSS
VL: DIQMTQSPSSLSASVGDRVTITCKASQNIYKYLNWFQQKPGKAPKLLIYYSNSLQTGIPSRFSGSGSGTDFTLTISSLQPEDFATYYCFQYSSGPTFGQGTKVEIKR
notes: as for B4
B11: humanized hA2-11E-H4/L2 (antibody, human IgG1, kappa, V domains shown)
VH: EVQLVESGGGLVQPGGSLRLSCAASGFTFSNYYMYWIRQAPGKGLEWISSINTDGGSTYYPDSVKGRFTISRDNSKNTVYLQMNSLRAEDTAVYYCAKSTPNIPLAYWGQGTLVTVSS
VL: DIQMTQSPSSLSASVGDRVTITCKASQNIYKYLNWFQQKPGKAPKLLIYYSNSLQTGVPSRFSGSGSGTDFTLTISSLQPEDFATYYCFQYSSGPTFGQGTKVEIKR
notes: as for B4
B12: humanized hA2-11E-H3/L4 (antibody, human IgG1, kappa, V domains shown)
VH: EVQLVESGGGLVQPGGSLRLSCAASGFTFSNYYMYWIRQAPGKGLEWVSSINTDGGSTYYADSVKGRFTISRDNSKNTVYLQMNSLRAEDTAVYYCAKSTPNIPLAYWGQGTLVTVSS
VL: DIQMTQSPSSLSASVGDRVTISCKASQNIYKYLNWFQQKPGEAPKLLIYYSNSLQTGIPSRFSGSGSGTDFTLTISSLQPEDFAIYFCFQYSSGPTFGPGTKVEIKR
notes: as for B4
B13: humanized hA2-11E-H4/L3 (antibody, human IgG1, kappa, V domains shown)
VH: EVQLVESGGGLVQPGGSLRLSCAASGFTFSNYYMYWIRQAPGKGLEWISSINTDGGSTYYPDSVKGRFTISRDNSKNTVYLQMNSLRAEDTAVYYCAKSTPNIPLAYWGQGTLVTVSS
VL: DIQMTQSPSSLSASVGDRVTITCKASQNIYKYLNWFQQKPGKAPKLLIYYSNSLQTGIPSRFSGSGSGTDFTLTISSLQPEDFATYYCFQYSSGPTFGQGTKVEIKR
notes: as for B4
B14: humanized hA2-11E-H3/L2 (antibody, human IgG1, kappa, V domains shown)
VH: EVQLVESGGGLVQPGGSLRLSCAASGFTFSNYYMYWIRQAPGKGLEWVSSINTDGGSTYYADSVKGRFTISRDNSKNTVYLQMNSLRAEDTAVYYCAKSTPNIPLAYWGQGTLVTVSS
VL: DIQMTQSPSSLSASVGDRVTITCKASQNIYKYLNWFQQKPGKAPKLLIYYSNSLQTGVPSRFSGSGSGTDFTLTISSLQPEDFATYYCFQYSSGPTFGQGTKVEIKR
notes: as for B4
B15: humanized hA2-11E-H4/L4 (antibody, human IgG1, kappa, V domains shown)
VH: EVQLVESGGGLVQPGGSLRLSCAASGFTFSNYYMYWIRQAPGKGLEWISSINTDGGSTYYPDSVKGRFTISRDNSKNTVYLQMNSLRAEDTAVYYCAKSTPNIPLAYWGQGTLVTVSS
VL: DIQMTQSPSSLSASVGDRVTISCKASQNIYKYLNWFQQKPGEAPKLLIYYSNSLQTGIPSRFSGSGSGTDFTLTISSLQPEDFAIYFCFQYSSGPTFGPGTKVEIKR
notes: as for B4

The target in one experiment is T1, Recombinant Human ALK2 Fc Chimera (Sino …). The experiment can be described thus: SPR, Biacore T200; antigen immobilised on CM5 chip, antibody as analyte; bivalent binding model. The protocol: The dissociation constants of humanized hA2-15A-H4/L6, humanized hA2-27D-H2/L2, and humanized hA2-27D-H3/L4 prepared in Example 8)-5 for the antigen (Recombinant Human ALK2 Fc Chimera, Sino Biological Inc.) were measured in Biacore T200 (GE Healthcare Bio-Sciences Corp.) by using the antigen immobilized as a ligand and each antibody as an analyte. The antigen was added at 1.25 μg/mL for 60 seconds and immobilized onto a sensor chip CM5 (GE Healthcare Bio-Sciences Corp.). The running buffer used was HBS-EP+(10 mM HEPES (pH 7.4), 0.15 M NaCl, 3 mM EDTA, and 0.05% Surfactant P20). Serially diluted solutions (0.2 to 50 nM) of the antibody were added onto the antigen-immobilized chip at a flow rate of 30 μl/min for 300 seconds. Subsequently, the dissociation phase was monitored for 1800 seconds. A 10 mM glycine/hydrochloric acid solution (pH 1.5) was added thereto as a regenerating solution at a flow rate of 10 μl/min for 30 seconds twice. The data was analyzed using bivalent binding models of analytical software (BIAevaluation software, version 1.0) to calculate an association rate constant ka, a dissociation rate constant kd, and a dissociation constant (KD; KD=kd/ka).
On to B1, for which the Kd is 4.3 nM.

Turning to B2, the Kd worked out at 5.7 nM.

In the case of B3, the Kd amounted to 4.3 nM.

Another experiment deals with T2, human ALK2 extracellular domain with …. The experiment can be described thus: SPR, Biacore T200; antibody captured from culture supernatant by anti-human IgG (Fc), antigen as analyte; 1:1 binding model. As to the method:
The dissociation constants of the humanized A2-11E antibodies (IgG1) and the humanized A2-25C antibodies (IgG1) prepared in Example 18)-5 for the antigen (human ALK2 extracellular domain prepared in Example 14)-1) were measured using Biacore T200 (GE Healthcare Bio-Sciences Corp.) by the capture method which involves capturing each antibody as a ligand onto an immobilized anti-human IgG (Fc) antibody and assaying the antigen as an analyte. Approximately 1000 RU of the anti-human IgG (Fc) antibody (Human Antibody Capture kit, GE Healthcare Bio-Sciences Corp.) was covalently bound to a sensor chip CM5 (GE Healthcare Bio-Sciences Corp.) by the amine coupling method. Similarly, this antibody was immobilized onto a reference cell. The running buffer used was HBS-EP+(10 mM HEPES (pH 7.4), 0.15 M NaCl, 3 mM EDTA, and 0.05% Surfactant P20). The culture supernatant containing the antibody was added onto the anti-human IgG (Fc) antibody-immobilized chip for approximately 1 minute. Then, serially diluted solutions (0.78 to 200 nM) of the antigen were added thereto at a flow rate of 30 μl/min for 300 seconds. Subsequently, the dissociation phase was monitored for 600 seconds. 3 M MgCl₂ was added thereto as a regenerating solution at a flow rate of 10 μl/min for 30 seconds. The data was analyzed using 1:1 binding models of analytical software (BIAevaluation software, version 1.0) to calculate an association rate constant ka, a dissociation rate constant kd, and a dissociation constant (KD; KD=kd/ka).
(Surface plasmon resonance follows binding to a sensor surface in real time, without labels.)
Consider B4, for which the Kd was found to be 53.3 nM.

B5 had a Kd of 27.9 nM.

B6: the Kd was 81.8 nM.

On to B7, for which the Kd is 64.4 nM.

For the molecule B8, the Kd was determined as 116 nM.

On to B9, for which the Kd amounted to 56.7 nM.

B10 yielded a Kd of 47.4 nM.

Consider B11, for which the Kd is 19.9 nM.

B12: the Kd is 31.3 nM.

As to B13, the Kd worked out at 18.5 nM.

For the molecule B14, the Kd turned out to be 63.1 nM.

On to B15, for which the Kd came out at 11.1 nM.
